Results reported in patent US20220281969A1 (ANTLERA THERAPEUTICS, published 2022).

Target: T1, recombinant human LRP6-Fc chimera (human, UniProt O75581 20-1370)
T1 construct: extracellular domain; also called human LRP6 chimera; not shown: Fc part of the chimera
T1 sequence (looked up): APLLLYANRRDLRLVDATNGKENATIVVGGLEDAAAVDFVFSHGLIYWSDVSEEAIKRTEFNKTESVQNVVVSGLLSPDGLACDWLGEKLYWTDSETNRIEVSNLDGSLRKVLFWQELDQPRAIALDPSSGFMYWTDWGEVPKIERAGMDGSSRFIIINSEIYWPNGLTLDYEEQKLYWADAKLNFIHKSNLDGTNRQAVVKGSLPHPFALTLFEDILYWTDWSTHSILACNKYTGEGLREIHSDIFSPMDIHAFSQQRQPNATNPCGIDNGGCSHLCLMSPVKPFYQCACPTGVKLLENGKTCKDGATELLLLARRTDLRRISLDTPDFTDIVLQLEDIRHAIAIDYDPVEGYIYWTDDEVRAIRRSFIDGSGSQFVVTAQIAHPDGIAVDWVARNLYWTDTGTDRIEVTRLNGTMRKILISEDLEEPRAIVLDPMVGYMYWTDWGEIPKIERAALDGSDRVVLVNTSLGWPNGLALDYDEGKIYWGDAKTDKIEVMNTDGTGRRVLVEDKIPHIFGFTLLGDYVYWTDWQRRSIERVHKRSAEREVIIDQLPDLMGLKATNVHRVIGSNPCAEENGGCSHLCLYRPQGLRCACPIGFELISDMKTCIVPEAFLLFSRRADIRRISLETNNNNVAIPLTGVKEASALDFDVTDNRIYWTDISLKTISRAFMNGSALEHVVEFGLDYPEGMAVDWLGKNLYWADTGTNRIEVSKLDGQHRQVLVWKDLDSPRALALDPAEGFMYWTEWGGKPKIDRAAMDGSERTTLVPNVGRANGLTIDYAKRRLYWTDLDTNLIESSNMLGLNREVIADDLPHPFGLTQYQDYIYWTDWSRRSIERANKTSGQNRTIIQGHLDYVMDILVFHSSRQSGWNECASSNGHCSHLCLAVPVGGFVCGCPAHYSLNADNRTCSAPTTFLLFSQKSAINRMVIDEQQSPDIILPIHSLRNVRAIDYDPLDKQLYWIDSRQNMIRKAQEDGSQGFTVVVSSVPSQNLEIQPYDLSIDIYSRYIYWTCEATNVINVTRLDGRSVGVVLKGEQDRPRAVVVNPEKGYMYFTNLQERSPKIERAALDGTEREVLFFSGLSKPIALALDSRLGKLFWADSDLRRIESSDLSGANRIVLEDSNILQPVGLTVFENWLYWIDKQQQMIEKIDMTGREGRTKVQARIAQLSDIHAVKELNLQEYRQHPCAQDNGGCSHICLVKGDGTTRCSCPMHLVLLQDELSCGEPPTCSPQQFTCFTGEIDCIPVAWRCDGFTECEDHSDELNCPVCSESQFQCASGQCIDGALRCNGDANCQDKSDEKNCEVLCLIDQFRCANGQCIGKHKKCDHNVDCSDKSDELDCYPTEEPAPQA
Assay: single-point ELISA, IgG1 on coated antigen
Method: FIGS. 1a and 1b show LRP six antibodies. (A) The amino acid sequences of the complementarity determining regions (CDR) of the heavy (H) and the light (L) chains are presented. The antibodies were grouped into unique epitopes as determined by competitive ELISAs. (B) Single-point ELISAs were performed on 96-well Maxisorb immune plates coated with the […] of mouse LRP5, mouse LRP6 and human LRP6 chimeras. The plates were incubated with the purified Fab or IgG1 at the concentrations indicated followed by incubation with horseradish peroxidase (HRP)-conjugated anti-kappa antibody. The wells were washed eight times followed by incubation with 3,3′,5,5′-tetramethylbenzidine/H₂O₂ peroxidase (TMB) substrate for 5-10 min. The reaction was stopped by adding one M H₃PO₄ and the absorbance was measured spectrometrically at 450 nm in a microtiter plate reader.
The full length IgG1s were purified and a single-point ELISA was done to determine the specificity of the antibodies. […] A multipoint competitive ELISA was used to determine the relative affinities of the antibodies to the recombinant antigen.

B1: LRP6-E3 IgG1 antibody (antibody, V domains shown)
VH: EVQLVESGGGLVQPGGSLRLSCAASGFNLYYYSMHWVRQAPGKGLEWVASIYSSYGYTYYADSVKGRFTISADTSKNTAYLQMNSLRAEDTAVYYCARYAGYYYYPWAYYGWPFSGLDYWGQGTLVTVSS
VL: DIQMTQSPSSLSASVGDRVTITCRASQSVSSAVAWYQQKPGKAPKLLIYSASSLYSGVPSRFSGSRSGTDFTLTISSLQPEDFATYYCQQAGSAPYHLITFGQGTKVEIKR
notes: Tested as purified full length IgG1
binding result: no binding
